Where two headings read alike, the source gives them in different places.
Key:
[1] = target: human 4-1BB on the surface of HEK293 cells (HEK293-Hu4-1BB) (human) (UniProt Q07011); experiment: cell-based or functional assay
[2] = target: human 4-1BB on the surface of HEK293 cells (HEK293-Hu4-1BB) (human) (UniProt Q07011); experiment: cell-based or functional assay; remark: listed apart in the source
[3] = target: human CD40 on the surface of HEK293 cells (HEK293-HuCD40) (human) (UniProt P25942); experiment: cell-based or functional assay
[4] = target: human CD40 on the surface of HEK293 cells (HEK293-HuCD40) (human) (UniProt P25942); experiment: cell-based or functional assay; remark: listed apart in the source
[5] = target: human FAP on the surface of CHO-K1 cells (CHO-K1-HuFAP) (human) (UniProt Q12884); experiment: FACS, CHO-K1-HuFAP cells
[6] = target: human FAP on the surface of CHO-K1 cells (CHO-K1-HuFAP) (human) (UniProt Q12884); experiment: FACS, CHO-K1-HuFAP cells; remark: listed apart in the source
[7] = target: human FAP on the surface of CHO-K1 cells (CHO-K1-HuFAP) (human) (UniProt Q12884); experiment: FACS, CHO-K1-HuFAP cells; remark: listed apart in the source
[8] = target: human CD40 on the surface of HEK293 cells (HEK293-HuCD40) (human) (UniProt P25942); experiment: FACS, HEK293-HuCD40 cells
[9] = target: human CD40 on the surface of HEK293 cells (HEK293-HuCD40) (human) (UniProt P25942); experiment: FACS, HEK293-HuCD40 cells; remark: listed apart in the source
[10] = target: human 4-1BB on the surface of HEK293 cells (HEK293-Hu4-1BB) (human) (UniProt Q07011); experiment: FACS, HEK293-Hu4-1BB cells
[11] = target: human 4-1BB on the surface of HEK293 cells (HEK293-Hu4-1BB) (human) (UniProt Q07011); experiment: FACS, HEK293-Hu4-1BB cells; remark: listed apart in the source
[12] = target: human 4-1BB on the surface of HEK293 cells (HEK293-Hu4-1BB) (human) (UniProt Q07011); experiment: FACS, HEK293-Hu4-1BB cells; remark: listed apart in the source
[13] = target: human 4-1BB on the surface of HEK293 cells (HEK293-Hu4-1BB) (human) (UniProt Q07011); experiment: FACS, HEK293-Hu4-1BB cells; remark: listed apart in the source

4-1BB/NF-κB luciferase reporter, CD40-crosslinked, Fold change in Emax [1] | 4-1BB/NF-κB luciferase reporter, FAP-crosslinked, Fold change in Emax [1] | 4-1BB/NF-κB luciferase reporter, uncrosslinked, Fold change in Emax [1] | 4-1BB/NF-κB luciferase reporter, CD40-crosslinked, Fold change in Emax [2] | 4-1BB/NF-κB luciferase reporter, FAP-crosslinked, Fold change in Emax [2] | 4-1BB/NF-κB luciferase reporter, uncrosslinked, Fold change in Emax [2] | CD40/NF-κB reporter (HEK-Blue CD40L), 4-1BB-crosslinked, Fold change in Emax [3] | CD40/NF-κB reporter (HEK-Blue CD40L), FAP-crosslinked, Fold change in Emax [3] | CD40/NF-κB reporter (HEK-Blue CD40L), uncrosslinked, Fold change in Emax [3] | CD40/NF-κB reporter (HEK-Blue CD40L), uncrosslinked, Fold change in Emax [4] | Maximum fluorescence value [5] | Maximum fluorescence value [6] | Maximum fluorescence value [7] | Maximum fluorescence value [8] | Maximum fluorescence value [9] | Maximum fluorescence value [10] | Maximum fluorescence value [11] | Maximum fluorescence value [12] | Maximum fluorescence value [13] | Substance
1.06 fold | 1.04 fold | 1.05 fold | 1.05 fold | 1.08 fold | 1.1 fold | 0.99 fold | 0.99 fold | 1 fold | 0.99 fold | 63 | 62 | 64 | 61 | 62 | 67 | 69 | 63 | 65 | IgG1 isotype control (antibody)
– | – | – | 1.06 fold | 1.02 fold | 1.01 fold | – | – | – | – | – | – | – | – | – | – | – | – | 1790 | RO7300490 (2302(2+1)PG), FAP/CD40 bispecific antibody molecule, control

Reference: patent publication EP4674868A1
